# According to patent publication US20240270821A1, “GIP/GLP1/GCG TRI-RECEPTOR AGONISTS AND USES THEREOF” (priority 2023, published 2024):
# Positions count from the first letter of the chain named. Starred links: 1 amine or outer side, 2 acyl side, 3 side chain; linkers in the order of their positions; H or OH if unused. Non-standard residues stand in square brackets, D forms with d. Groups on a side chain read outwards from the residue. No end group written: not given here. *: point of attachment. C20 diacid = O=C(O)CCCCCCCCCCCCCCCCCCC(=O)*; Phe(4-CN) = N#Cc1ccc(C[C@H](N)C(=O)O)cc1; αMePhe(2-F) = C[C@](N)(Cc1ccccc1F)C(=O)O; γGlu = O=C(O)[C@H](CCC(=O)[*:2])N[*:1]; AEEA = NCCOCCOCC(=O)O; Aib = CC(C)(N)C(=O)O
# T1: human GIP receptor (human) (UniProt P48546)
# T1 sequence (looked up): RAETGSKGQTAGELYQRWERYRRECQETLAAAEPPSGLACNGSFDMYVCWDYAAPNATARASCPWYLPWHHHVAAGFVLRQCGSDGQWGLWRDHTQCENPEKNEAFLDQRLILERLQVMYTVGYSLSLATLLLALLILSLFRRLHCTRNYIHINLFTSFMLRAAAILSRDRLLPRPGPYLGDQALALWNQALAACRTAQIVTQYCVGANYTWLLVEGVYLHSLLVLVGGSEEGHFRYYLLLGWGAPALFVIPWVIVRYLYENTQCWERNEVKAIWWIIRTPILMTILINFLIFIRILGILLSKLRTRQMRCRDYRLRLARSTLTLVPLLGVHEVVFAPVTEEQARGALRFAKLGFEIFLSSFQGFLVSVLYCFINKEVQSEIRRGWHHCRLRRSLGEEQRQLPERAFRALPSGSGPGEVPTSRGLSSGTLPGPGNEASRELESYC
# B1: Example 354 (peptide)
# chain: Y[Aib]QGT[αMePhe(2-F)]TSDYSKILDKIAQKAFIQYLIEGGPSSGEPPPSEG-NH2
# modifications: not fully specified (residue 20)
# B2: Example 355 (peptide)
# chain: Y[Aib]QGT[αMePhe(2-F)]TSDYSKILDKIAQKAFIEYLIEGGPSSGAPPPSEG-NH2
# modifications: not fully specified (residue 20)
# B3: Example 356 (peptide)
# chain: Y[Aib]QGT[αMePhe(2-F)]TSDYSKLLDKIAQKAFIEYLIEGGPSSGAPPPSGE-NH2
# modifications: not fully specified (residue 20)
# B4: Example 357 (peptide)
# chain: Y[Aib]QGT[αMePhe(2-F)]TSDYSKLLDKIAQKAFIEYLIEGGPSSGAPPPEGE-NH2
# modifications: not fully specified (residue 20)
# B5: Example 363 (peptide)
# chain: Y[Aib]QGT[αMePhe(2-F)]TSD[Phe(4-CN)]SKLLDKIAQK([AEEA-γGlu-C20 diacid])AFIEYLIEGGPSSGAPPPSGS-NH2
# B6: Example 364 (peptide)
# chain: Y[Aib]QGT[αMePhe(2-F)]TSD[Phe(4-CN)]SKLLDKIAQK([AEEA-γGlu-C20 diacid])AFIEYLIEGGPSSGEPPPSGS-NH2
# B7: Example 368 (peptide)
# chain: YXQGTXTSDYXIXLDXKAQXXFIEXLLEGGPSSGEPPPS
# modifications: synthetic construct; SITE 2: note = 2-Aminoisobutyric Acid; SITE 6: note = alpha-methyl-2-fluoro-L-phenylalanine; SITE 11: note = alpha-methyl-L-serine; SITE 13: note = alpha-methyl-leucine; SITE 16: note = L-ornithine; SITE 17: note = Lysine is chemically modified through conjugation of the epsilon
# B8: Example 373 (peptide)
# chain: B7 chain with Y10X, X11S, G34X, S39E
# modifications: synthetic construct; SITE 2: note = 2-Aminoisobutyric Acid; SITE 6: note = alpha-methyl-2-fluoro-L-phenylalanine; SITE 10: note = 3-(4-Pyridyl)-L-alanine; SITE 13: note = alpha-methyl-leucine; SITE 16: note = L-ornithine; SITE 17: note = Lysine is chemically modified through conjugation of the epsil
# B9: Example 375 (peptide)
# chain: B7 chain with Y10X, L27I
# modifications: synthetic construct; SITE 2: note = 2-Aminoisobutyric Acid; SITE 6: note = alpha-methyl-2-fluoro-L-phenylalanine; SITE 10: note = 3-(4-Pyridyl)-L-alanine; SITE 11: note = alpha-methyl-L-serine; SITE 13: note = alpha-methyl-leucine; SITE 16: note = L-ornithine; SITE 17: note = Lysine is chemically mo
# B10: Example 377 (peptide)
# chain: B7 chain with Y10X, S39E
# modifications: synthetic construct; SITE 2: note = 2-Aminoisobutyric Acid; SITE 6: note = alpha-methyl-2-fluoro-L-phenylalanine; SITE 10: note = 3-(4-Pyridyl)-L-alanine; SITE 11: note = alpha-methyl-L-serine; SITE 13: note = alpha-methyl-leucine; SITE 16: note = L-ornithine; SITE 17: note = Lysine is chemically mo
# B11: Example 378 (peptide)
# chain: B7 chain with Y10X, L27I, S39E
# modifications: synthetic construct; SITE 2: note = 2-Aminoisobutyric Acid; SITE 6: note = alpha-methyl-2-fluoro-L-phenylalanine; SITE 10: note = 3-(4-Pyridyl)-L-alanine; SITE 11: note = alpha-methyl-L-serine; SITE 13: note = alpha-methyl-leucine; SITE 16: note = L-ornithine; SITE 17: note = Lysine is chemically mo
# B12: Example 34 (peptide)
# chain: YXQGTFTSDFSKXLDKKAQXAFIEYLLEAGPSSGAPPPGEG
# modifications: not fully specified; Aib, αMeL; acylated Lys; C-terminal amide; synthetic construct; SITE 2: note = 2-Aminoisobutyric Acid; SITE 13: note = alpha-methyl-leucine; SITE 17: note = Lysine is chemically modified through conjugation of the epsilon-amino group of the Lysine side chain with (2-[2-(2-Amino-ethoxy)-ethoxy]-acetyl)-(gamma-Glu)-CO-(CH2) 18-CO2H; SITE 20: n
# B13: Example 380 (peptide)
# chain: B7 chain with Y10X, G34X, S39E
# modifications: synthetic construct; SITE 2: note = 2-Aminoisobutyric Acid; SITE 6: note = alpha-methyl-2-fluoro-L-phenylalanine; SITE 10: note = 3-(4-Pyridyl)-L-alanine; SITE 11: note = alpha-methyl-L-serine; SITE 13: note = alpha-methyl-leucine; SITE 16: note = L-ornithine; SITE 17: note = Lysine is chemically mo
# Target: human glucagon receptor (human) (UniProt P47871)
# Experiment: cell-based or functional assay
# human glucagon receptor (human), sequence (P47871 26-477): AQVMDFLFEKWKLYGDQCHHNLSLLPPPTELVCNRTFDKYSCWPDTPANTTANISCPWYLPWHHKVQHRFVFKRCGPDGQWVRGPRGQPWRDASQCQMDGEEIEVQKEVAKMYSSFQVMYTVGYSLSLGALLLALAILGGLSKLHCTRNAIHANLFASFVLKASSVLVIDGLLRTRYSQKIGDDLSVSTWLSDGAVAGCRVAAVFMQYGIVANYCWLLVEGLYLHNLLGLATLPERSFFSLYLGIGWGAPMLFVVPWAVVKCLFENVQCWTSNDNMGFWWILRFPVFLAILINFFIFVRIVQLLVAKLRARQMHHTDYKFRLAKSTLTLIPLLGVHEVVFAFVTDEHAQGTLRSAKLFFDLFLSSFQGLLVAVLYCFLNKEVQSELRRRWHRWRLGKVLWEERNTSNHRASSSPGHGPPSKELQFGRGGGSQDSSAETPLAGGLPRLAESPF
Binder,Relative cAMP EC50 [nM],"cAMP Rel EC50, nM (1% HSA) [nM]",cAMP Rel EC50 (in the presence of 1% HSA) [nM]
B1,7.91,1440,–
B2,5.87,3430,–
B3,4.76,2680,–
B4,6.21,1810,–
B5,13.6,4080,–
B6,10.2,3190,–
B7,0.481,111,–
B8,4.48,666,–
B9,1.32,137,–
B10,1.36,163,–
B11,1.45,176,–
B12,3.47,–,855
B13,1.17,150,–

# Target: hGLP-1R (Homo sapiens, UniProt P43220)
# Experiment: cell-based or functional assay
# hGLP-1R, sequence (P43220 24-463): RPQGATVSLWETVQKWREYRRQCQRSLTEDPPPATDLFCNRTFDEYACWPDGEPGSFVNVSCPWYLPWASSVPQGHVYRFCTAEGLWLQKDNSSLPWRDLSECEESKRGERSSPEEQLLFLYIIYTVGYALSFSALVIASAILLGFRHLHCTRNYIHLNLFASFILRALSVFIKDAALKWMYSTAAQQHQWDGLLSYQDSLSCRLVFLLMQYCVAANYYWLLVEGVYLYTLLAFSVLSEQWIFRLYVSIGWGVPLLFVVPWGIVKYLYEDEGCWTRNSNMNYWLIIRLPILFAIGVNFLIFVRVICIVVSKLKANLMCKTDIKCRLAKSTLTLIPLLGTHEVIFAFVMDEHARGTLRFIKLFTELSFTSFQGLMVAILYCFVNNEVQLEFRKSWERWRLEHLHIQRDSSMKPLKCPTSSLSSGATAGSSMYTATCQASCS
Binder,Relative cAMP EC50 [nM],"cAMP Rel EC50, nM (1% HSA) [nM]",cAMP Rel EC50 (in the presence of 1% HSA) [nM]
B1,1.21,175,–
B2,1.01,351,–
B3,0.599,206,–
B4,0.625,248,–
B5,1.47,217,–
B6,1.1,260,–
B7,0.242,37.4,–
B8,0.392,54.5,–
B9,0.299,18,–
B10,0.367,29.4,–
B11,0.251,18.8,–
B12,1.16,–,242
B13,0.354,30.6,–

# Target: T1, human GIP receptor (human)
# Experiment: cell-based or functional assay
Binder,Relative cAMP EC50 [nM],"cAMP Rel EC50, nM (1% HSA) [nM]",cAMP Rel EC50 (in the presence of 1% HSA) [nM]
B1,0.134,23.8,–
B2,0.0811,33.2,–
B3,0.0613,19.2,–
B4,0.077,42.9,–
B5,0.375,91.8,–
B6,0.457,101,–
B7,0.0121,2.62,–
B8,0.0183,1.97,–
B9,0.0165,1.78,–
B10,0.0377,11.1,–
B11,0.0213,2.15,–
B12,0.122,–,44.2
B13,0.0346,7.77,–
